Experimental data taken from paper doi:10.1101/2023.01.30.525655 (bioRxiv, 2023).

What was measured:
crystal structure = target: the molecule itself; assay: crystal structure
[1] = target: RED-NHS-MIF-6xHis (human MIF-6xHis labelled with the RED-NHS dye) (human, UniProt P14174 2-115, RED-NHS dye (chemically labeled)); assay: MST
[2] = target: MIF-6xHis (human macrophage migration inhibitory factor, hexahistidine-tagged) (human, UniProt P14174 2-115); assay: cell-based or functional assay
SEC = target: the molecule itself; assay: SEC

Sequence of RED-NHS-MIF-6xHis (human MIF-6xHis labelled with the RED-NHS dye) (P14174 2-115): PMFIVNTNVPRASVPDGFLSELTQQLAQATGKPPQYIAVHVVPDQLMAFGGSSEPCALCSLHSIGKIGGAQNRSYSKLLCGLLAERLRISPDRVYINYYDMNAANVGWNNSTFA
Sequence of MIF-6xHis (human macrophage migration inhibitory factor, hexahistidine-tagged) (P14174 2-115): as above

Row | Binder | stoichiometry N (crystal structure) | Kd [1] | synergy in the CXCR4 yeast lacZ reporter, 10 µM MIF with 10 µM MDL2 [2] | stoichiometry N (SEC)
1 | MDL3-6xHis (Arabidopsis thaliana MIF/D-DT-like protein 3, hexahistidine-tagged) (natural protein, UniProt F4J4H3 1-112, looked up) MPCLYITTNVNFDGVNTDPFYSEVTKAVASIVGRPQNLVMVVLKGSVEIVFGGNKEAAAYAEIVSMGGITKQVKRELIATVGSILHTHFSIHPTRFIFKVFDINSLPLPSKL | 3 | < 5 µM | – | –
2 | MDL2-6xHis (Arabidopsis thaliana MIF/D-DT-like protein 2, hexahistidine-tagged) (natural protein) PCLNLSTNVNLDGVDTSSILSEASSTVAKIIGKPENYVMIVLKGSVPMSFGGTEDPAAYGELVSIGGLNADVNKKLSAAVSAILETKLSVPKSRFFLKFYDTKGSFFGWNGATL | – | < 5 µM | ~3 fold over the MIF-MDL1 combination | 3
